test: yeast display, Sf9 membrane polyspecificity reagent, FACS + sequencing; frameworks hold sequencing errors
In short: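 Nanobodies came from a synthetic yeast display library in Saccharomyces cerevisiae BJ5465, induced with galactose for 36–48 hours and stained for 1 hour at 4 °C with 10% biotinylated, detergent-solubilized Sf9 membrane reagent. Cells were enriched on streptavidin microbeads and then FACS-sorted, with low and high (top ~1%) gates set on anti-HA fluorescence for expression and streptavidin fluorescence for reagent binding. Each polyreactivity label reflects the gate a clone came from. Genes were amplified by colony PCR, sequenced by MiSeq 2 × 250 and filtered by CDR length.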

Sequence | polyreactivity (PSR sort gate)
QVQLVESGGGIDQAGGSLRLSCAASGRTFTSNAMGWYRQAPGKERELVAVIDRSGTSTYYADSVKGRFTISRDNAKNTVYLQMNSLKPEDTAVYYCAVRVRYSYTSRAKMYYWGQGTQVTVSS | high polyreactivity
QVQLVESGGGLVQAGGSLRLRCAASGSTFAYYAMGWYRQAPGKEREFVATITWTGGSTNYADSVKARFTISRDNAKNTVYLQMNSLKPEDTAVYYCAAAFVISYDYWGQGTQVTVSS | high polyreactivity
QVQLVESGGGLVQAGGSRRLSCAASGFTFHYYAMGWYRQAPGKERELVAVITSGGSTTYADSVKGRFTISRDNAKNTVYLQMNSLKPEDTAVYYCATDNPFLWWFRPDQHGMGYWGQGTQVTVSS | low polyreactivity
QVQLVESGGGLVQAGGSLRLSCAASGITFHANAMGWNRQARGKERELVPAINWSGGSTYYADSVKGRFTISRDNAKNTVYLQMNSLKPEDTAVYYCAAELWGLFDYWGQGTQVTVSS | low polyreactivity
QDQLVESGGGLVQAGGSLRLSCAASGSTFVENAMGWYRQAPGKERELVAAISSSGDSTFYADSVKGRFTISRDNAKNTVYLQMNSLKPEDTAVYYCNTPLLKRTTRGRERNYWGQGTQVTVSS | low polyreactivity
QVQLVASGGGLVQAGGSLRISCAASGRTITPYAMGWYRQAPGKERELVATISSGTSPNYADSVKGRFTISRDNAKNTVYLQMNSLIPEDTAVYYCAADGYTYKFDYWGQGTQVTVSS | low polyreactivity
QVQLVESGGGLVQAGGSLRLSCAASGSIFGTYAMGWYRQAPGKERELVARITRGVSTNYADSVQGRFTISRDNAKNTVYLQMNSLKPEDTAVYYCAAESGNRYEYWGQGTQVTVSS | low polyreactivity
QVQLEESGGGLVQAGGSLRLSCAASGFIFGKNDMGWYRQAPWKERELVAAITIGGSTNYADSVKGRFTISRDNAKNTVYLQMNSLKPEDTAVYYCNADSYHYGTSLYNYWGQGTQVTVSS | low polyreactivity
QVQLVESGGGLLQAGGSLRLSCAASGVIFSWYAMGWYRQAPGKERELVAAINWSGDSTYYADSVKGRFTISRDNAKNTVYLQMNSLKPEDTAVYYCAADPSYWGDPYDYWGQGTQVTVSS | high polyreactivity
QVQLVESGGGLVQAGGSLRLSCAASGFIFYKYAMGWYRQAPGKERELVAAITWRGGRTNYADSVKGRFTISRDYAKNTVYLQMNSLKPEDTAVYYCAADPWSSSYYYSYEYWGQGTQVTVSS | high polyreactivity
QVQLVESGGGLDQAGGSLRLSCAASGSTFVGYAMGWYRQAPGKERELVAAISQSDVSTYYADSVKGRFTISRDNAKNTVYLQMNSLKPEDTAVYYCAADRGGLRWFWQVLYDYWGQGTQVTVSS | low polyreactivity
QVQLVESGGGLDQAGGSLRLSCAASGLTFDANAMGWYRQAPGKERELVAAISSGGSTYADSVKGRFTISRDNAKNTVYLQMNSLKPEDTAVYYCNAVSIDVIQGDYNYWGQGTQVTVSS | low polyreactivity
QVQLVESGGGLVEAGGSLSLTCAASGRPFQYYAMRWYRPAPGKEREFVAAITRTGARTYYAVSVKGRFTISRDNAKNTVYLQMNSLKPEATAVYYCAKSLTFYSWRDYGYWGQGTQVTVSS | high polyreactivity
QVQLVESGGGLVQAGGSLRLSCAASGITFTINAMGWYRQAPGKERELVAVIDVSGGSTDYADSVKGRFTISRDNAKNTVYLQMNSLKPEDTAVYYCAADEYDVYYYAYREYYWGQGTQVTVSS | low polyreactivity
QVQLVESGGGLVQAGGSLRLSCAASGSIFIYNAMGWYRQAPGKERELVAAINWTGGSTYYADSVKGRFTISRDNAKNTVYLQMNSLKPEDTAVYYCNALRYGSTRGYDYWGQGTQVTVSS | high polyreactivity
QVQLVETRGGLVQAGVSLRLICSASGSTFAPKSIGLYRQAPGKERELVAGLSWGDSTYYADSVKGRFTISRDNAKNTVYLQMISLKPEDTAVYFCAVRWVWNPCGIQGDWAVDYDYWGQGTQVTVSS | low polyreactivity
QVQLVESGGGLVQAGGSLGLSCAASGRTFSFYGMGWYRQAPGKERELVAAINSDSRTNYADSVKGRFTISRDNAKNTVYLQMNSLKPEDTAVYYCNAYWYTSTGQYSYEYWGQGTQVTVSS | low polyreactivity
QVQLVESGGGLVQAGGSLRLSCAASGRIFASNAMGWYRQAPGKERELVAAISRTGGTTYYADSVKGRFTISRDNAKNTVYLQMNSLKPEDTAVYYCNAVKAPYLRYDYWGQGTQVTVSS | high polyreactivity
QVQLVESGGGLVQAAGSLRLSCAASGSIFETYAMGWYRHAPGKERELVAAITQSGGSTYYADSVKGRFTISRDNAKNTVYLQMNSLKPEDTEVYYCAADLFVWWNWGYEYWGQGTQVTVSS | low polyreactivity
QVQLVESGGGLVQAGGSLRLSCAASGRIFYYYAMGWYRQAPGKERELVASINSVGTTTYADSVKGRVTISRDNAKNTVYLQMNSLKPEDTAVYYCARDTGSIYYDGYEYDYWGQGTQVTVSS | low polyreactivity
QVQLVESGGGLVQAGGSLRLSCAASGRTFPYNVMGWYRQAPRKERELVAAITYDGGNTYYADSVKGRFTISRDNAKNTVYLQMNSLKPEDTAVYYCARPLTYYDEFDSWGQGTQVTVSS | low polyreactivity

Sequence | polyreactivity (PSR sort gate)
QVQLVESGGGLVQAGGSLSLMCAASGGIFPRYTRGWYRQAPGKEREMVASISRSGASTYYADSVKGRFTISRDNAKNTVYLQMNSLKTEDTAVYYCNARFVTGYWYIWENYWGQGTQVTVSS | high polyreactivity
QVQLVESGGGLVQAGGSLRLSCAASGSTFTSYAMGWYRQAPGKERELVAGITSRGTSTYYADSVKGRFTISRDNAKNTVYLQMNSLKPEDTAVYYCARDPYQPKVSGRLFLRYDYWGQGTQVTVSS | high polyreactivity
QDQLVESGGGLVQAGGSLRLSCAASGFTFGYYVMGWYRQAPGKERELVAAITQRGGSTYADSVKGRFTISRDNAKNTVYLQMNSLKPEDTAVYYCAAPIYNGYASWQVYYWGQGTQVTVSS | high polyreactivity
QVQRVESGGGLVQAGGSLRLSCAPSGSTFPSYAMGWYRQAPGKERELVAAITRRGGRTYYADSVKGRFTISRDNAKKTVYLQMNSLKPEDTAVYYCNRVSRKILDGDYDYWGQGTQVTVSS | high polyreactivity
QVQLVESGGGLVQAGGSLRLSCAASGSIFRFYTMGWYRQAPGKERELVAAIRYRVTSTYYADSVKGRFTMSRDNAKNTVYLQMNSLTPEDTAVYYCAVRRAKRRSQGVSYASYAGNYNYWGLGTQVTVSS | high polyreactivity
QVQLVESGGGLVQAGGSLRLSCAASGFISGKYAMGWNRQAPGKERELVATIRSGGSTNYADSVKGRFTISRDNAKNTVYLQMNSLKPEDTAVYYCAKRRGSRGVIYDYWGQGTQVTVSS | high polyreactivity
QGQRVESGGGLVQAGGSLRLSCAASGSIFHGYAMGWDRQAPGKERELVADITSGGGTYYADSVKGRFTISRDNAKTTVYLQMNSLKPEDTAVYYCATQKSRRYGYWVQGTQVTVSS | low polyreactivity
QVQLVESGGGLVQAGGSLRLSCAASVRIFVDNTMGLYRQAPGKERELVAVITSGGSTNYADSVKGRFTISRDNAKNTVYLQMNSLKPEDTAVYYCATEPGGDRFDDRPFQYGYWGQGTQVTVSS | low polyreactivity
QVQLVESGGGLVQAGGSLRLSCAASGRSFQDNAMGWYRQAPGKERELVAAISWRGGSTNYADSVKGRFTISRDNAKNTVYLQMNSLKPEDTAVYYCAKGIRRWYGGSDYWGQGTQVNVSS | low polyreactivity
QVQLVESGGGLVQAGGSLRLSCAASGFIFSNNAMGWYRQAPGKERELVAAISKSGGGTSYADSVKGRFTISRDNAKNTVYLQMKSLNPEDSGVYYCAARFSQFRVDFWGQGTQVTVSS | high polyreactivity
QVQLVDSGGGLVQAGGSLRLSCAASGSTFTTNGMGGYRQAPGKERELVAAITRGGSTNYADSVKGRFTISRDNAKNTVFLQMNSLKPEDTAVYYCAAQNYWYYPRRFDYWGQGTQVTVSS | high polyreactivity
QVQLVESGGGLVQAGGSLRLSCAASGSIFYGNAMGWYRQAPGKERELVADITWSGGSTYYADSVKGRFTISRDNAKNTVYLQMNSLKPEDTAVYYCAAKVKHWYYPYYYWGQGTQVTVSS | low polyreactivity
QVQLVESGGGLVQAGGSLRLSCAASGYTFYYAMGWYRQAPGKERELVAAISAGGGRTYYADSVKGRFTISRDNAKNTVYLQMNSLKPEDTAVYYCAGDYFYSQVAYVYWGQGTQLTVSS | high polyreactivity
QVKLVESGGGLVKAGGSIRLSCAASGFTFGVYAKGSYRQAPAKERELVAAISTTVGSTYYADSVKGRFTISRDNAKNTVYLQMNSLKPEVTAVYYCSAEYTGYINYYIYEYWGQGTQVTVSS | low polyreactivity
QVQLVESGGGLVQAGGSLRLSCAASGRILRYNAMGCDRQAPGKERELVASISGNGGSTYYADSVKGRFTISRDNAKNTVYLQMNSLKPEDTAVYYCNKYSYSSRGQKEYDYWGQGTQVTVSS | low polyreactivity
QVQLVESGGGLVQAGGSLRLSCAASGSTFAIYAMGWYRQAPGKERELVAAITRGSTSYADSVKGRFTISRDNAKNTVYLQMYSLKPEDTAVYYCAADSSRYGVIRDFDYWGQGTQVTVSS | high polyreactivity
QVQLVESGGGLVQAGGSLRLSCAASGSTFRWNAMGWYRQAPGKERELVAAISNGGSTNYADSVKGRFTISRDNAKNTVYLQMNSLKPEDTAVYYCATDGWYGQHYYDYDFDYYYWGQGTQVTVSS | low polyreactivity
QVQLVESGGGLVQAGGSLRLSCAASGSTFDNYAMGWYRQAPGKERELVATITSGGSITNYADSVKGRFTISRDNAKNTVYLQMYSLKPEDTAVYYCAKRRYFYYRGDYWGQGTQVTVSS | high polyreactivity
QVQLVESGGGLVQAGGSLRLSCAASGSIFLYNDMGWYRQAPGKERELVAAITSTGNTNYADSVKGRFTISRDNAKNTVYLQMNSLNRKIPRSITALNVSCTSVVVGYDYWGQGTQVTVSS | low polyreactivity
QLQLVESGGGLVKAGGSLRLSCAASGRTLPVYAMGWYRQAPGKERELVAAIRWRGGRTYYADSVKGRFTISRDNAKNTVYLQMNSLKPEDTAVYYCAATTNTDRDYWGQGTQVTVSS | high polyreactivity
